Measured values as given in patent US20240358847A1 (Merck Sharp & Dohme, published 2024).
Where a chain is given by its changes, count along the chain named. Numbers in names are those of the source.

T1: Human Trop2 (human, UniProt P09758 27-274, limits assumed)
T1 construct: also called TROP2 protein; trophoblast cell-surface antigen 2
T1 sequence (looked up): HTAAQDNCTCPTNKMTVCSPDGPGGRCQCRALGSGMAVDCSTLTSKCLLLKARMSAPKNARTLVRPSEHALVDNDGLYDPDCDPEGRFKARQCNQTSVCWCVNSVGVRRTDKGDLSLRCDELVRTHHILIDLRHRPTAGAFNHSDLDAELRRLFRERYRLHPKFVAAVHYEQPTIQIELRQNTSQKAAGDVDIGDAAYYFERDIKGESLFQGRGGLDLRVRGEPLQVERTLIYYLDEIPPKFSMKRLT

T2: TROP2 on BxPC-3 and MDA-MB-231-KWL cells (human, UniProt P09758 27-323)
T2 construct: whole, on cells
T2 sequence (looked up): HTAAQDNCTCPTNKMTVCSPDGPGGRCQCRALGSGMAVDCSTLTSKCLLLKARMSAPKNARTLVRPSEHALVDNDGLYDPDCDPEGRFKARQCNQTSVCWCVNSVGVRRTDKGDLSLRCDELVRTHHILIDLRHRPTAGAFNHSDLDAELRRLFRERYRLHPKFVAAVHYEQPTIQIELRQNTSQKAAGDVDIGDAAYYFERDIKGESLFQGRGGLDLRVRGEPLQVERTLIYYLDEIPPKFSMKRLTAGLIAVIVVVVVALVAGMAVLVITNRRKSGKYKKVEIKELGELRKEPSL

B1: αTROP2 Fab (Fab, V domains shown)
VH: QVQLQQSGSELKKPGASVKVSCKASGYTFTNYGMNWVKQAPGQGLKWMGWINTYTGEPTYTDDFKGRFAFSLDTSVSTAYLQISSLKADDTAVYFCARGGFGSSYWYFDVWGQGSLVTVSS
VL: DIQLTQSPSSLSASVGDRVSITCKASQDVSIAVAWYQQKPGKAPKLLIYSASYRYTGVPDRFSGSGSGTDFTLTISSLQPEDFAVYYCQQHYITPLTFGAGTKVEIK
notes: CH1 and kappa constant parts not specified
B2: αTROP2 (HC:BSM-YTE-S375C) (LC:BSM-Y53D) conjugated to MP-AA-PABC-MMAE (ADC 1) (antibody, human IgG1, kappa, V domains shown)
VH: B1 VH with Q5L, K38R, A69S, T78Q, D89E, F95Y, S115T
VL: DIQLTQSPSSLSASVGDRVTITCKASQDVSIAVAWYQQKPGKAPKLLIYSASDRYTGVPSRFSGSGSGTDFTLTISSLQPEDFATYYCQQHYITPLTFGPGTKVEIKR
modifications: Cys at position 375 (Eu numbering) conjugated to MP-AA-PABC-MMAE; DAR 1.9
notes: Antibody-drug conjugate; also called αTROP2 (HC:BSM-YTE-S375C-MMAE) (LC:BSM-Y53D)
B3: mAb_Lm_Y53V_HC (antibody, human IgG1, kappa)
heavy: not shown
light: DIQLTQSPSSLSASVGDRVSITCKASQDVSIAVAWYQQKPGKAPKLLIYSASVRYTGVPDRFSGSGSGTDFTLTISSLQPEDFAVYYCQQHYITPLTFGAGTKVEIKRTVAAPSVFIFPPSDEQLKSGTASVVCLLNNFYPREAKVQWKVDNALQSGNSQESVTEQDSKDSTYSLSSTLTLSKADYEKHKVYACEVTHQGLSSPVTKSFNRGEC
B4: mAb_Lm_Y92E_HC (antibody, human IgG1, kappa)
heavy: not shown
light: B3 light with V53Y, Y92E
B5: mAb_Lm_Y92A_HC (antibody, human IgG1, kappa)
heavy: not shown
light: B3 light with V53Y, Y92A
B6: αTROP2 (HC:Sac) (LC:Sac-Y53D) (antibody, human IgG1, kappa)
heavy: not shown
light: B3 light with V53D
B7: αTROP2 (HC: Sac-S375C) (LC: Sac-Y53D) (antibody, human IgG1, kappa)
heavy: not shown
light: B3 light with V53D

Key:
[1] = molecular target: T1, Human Trop2; test: SPR, TROP2 capture, pH 7.4, monovalent mode; KDapp
[2] = molecular target: T1, Human Trop2; test: SPR, binding to target
[3] = molecular target: T2, TROP2 on BxPC-3 and MDA-MB-231-KWL cells; test: on-cell ELISA, MDA-MB-231-KWL cells (TROP2 low); design: unit not given beside the values
Experimental: (§1) Cells were plated in duplicate onto 96-well plates, and primary antibody was diluted in cell culture medium with a starting concentration of 30 μg/mL (200 nM) with a dilution factor of 1:5. […] Data was plotted and analyzed. EC50 ([…]) was measured along with area under the curve (AUC) for each cell line.

[4] = molecular target: T2, TROP2 on BxPC-3 and MDA-MB-231-KWL cells; test: on-cell ELISA, BxPC-3 vs MDA-MB-231-KWL cells
Experimental: as §1

[5] = molecular target: T2, TROP2 on BxPC-3 and MDA-MB-231-KWL cells; test: on-cell ELISA, BxPC-3 cells (TROP2 high); design: unit not given beside the values
Experimental: as §1

[6] = molecular target: T1, Human Trop2; test: SPR, TROP2 capture, pH 7.4, bivalent mode; KDapp

Binder	Kd [1] [nM]	binding result [2]	AUC (MDA-MB-231-KWL) [3]	ΔAUC [4]	AUC (BxPC-3) [5]	Kd [6] [nM]
B1	1.1					
B2		binds				
B3			213	105	317	
B4			16.1	148	165	
B5			13.1	147	160	
B6			95.1	193	288	
B7						6.9
